Two molecules from publication doi:10.1101/2025.06.24.661325, “Structural and functional analysis of the Mycobacterium tuberculosis MmpS5L5 efflux pump presages a pathway to increased bedaquiline resistance” (bioRxiv, 2025) can be followed below.

Assay [1] addresses T1, M. tuberculosis MmpL5 Δ494-688 with C-terminal GFP-FLAG tag (M. tuberculosis, UniProt P9WJV1 1-964, Δ494-688).
T1 construct: also called MmpL5ΔCC; MmpL5 ΔCC
Description: co-purification (anti-FLAG affinity, then SEC). Particulars: partners not purified.

Assay [2] deals with T1, M. tuberculosis MmpL5 Δ494-688 with …. Description: cryo-EM structure. The settings on record: both partners purified.

B1: M. tuberculosis MmpS5 (natural protein)
chain: MIGTLKRAWIPLLILVVVAIAGFTVQRIRTFFGSEGILVTPKVFADDPEPFDPKVVEYEVSGSGSYVNINYLDLDAKPQRIDGAALPWSLTLKTTAPSAAPNILAQGDGTSITCRITVDGEVKDERTATGVDALTYCFVKSA
In the case of B1, the binding result in assay [1] is reported as “binds”.

B2: M. smegmatis acyl carrier protein AcpM (MSMEG_4326) (natural protein)
chain: MAATQEEIIAGLAEIIEEVTGIEPSEVTPEKSFVDDLDIDSLSMVEIAVQTEDKYGVKIPDEDLAGLRTVGDVVAYIQKLEEENPEAAAALREKFAADQ
For B2, the binding result in assay [2] is “binds”.
